Reference: paper PMC10630626 (2023)

B1: anti-idiotypic nanobody for Palivizumab 2 (AIP2^VHH), soluble (VHH)
VHH: DVQLQESGGGLVQAGGSLRLSCAASESLFRLNAMGWYRQAPGKQRELVAGITTSGDAVYADSVKGRFTISRDSAKNTVYLQTNNLKPEDTAVYYCNVRPRAGTWENARIGVWGQGTQVTVSS
B2: anti-idiotypic nanobody for Palivizumab 3 (AIP3^VHH), soluble (VHH)
VHH: DVQLQESGGGLVQPGGSLRLSCVASGRTWSIYAMGWFRQAPGKEREFVTAISISRSESVTHYAESVTGRFTISRDNAKNTLHLQMNSLKPEDTAVYFCAADRRSIDPHHTIDYWGQGTQVTVSS
B3: anti-idiotypic nanobody for Palivizumab 1 (AIP1^VHH), soluble (VHH)
VHH: DVQLQESGGGLVQAGGSLRLSCVASGLTFRYDMGWFRQAPGKEREFVAQITWRGGSATYYADSVKGRFTIARDIAKNAVYLQMNSLKPEDTAVYYCAAAYGSAGYRPDEYDSWGQGTQVTVSS
B4: anti-idiotypic nanobody for Palivizumab 4 (AIP4^VHH), soluble (VHH)
VHH: DVQLQESGGGLVQAGGSLRLSCVASGRAFSRYDMGWFRQAPGKEREFVAQISWRGGSATSYADTVKGRFTIARDNAKNTVYLQMNSLKPEDTAVYYCNARTPTLSSWGQGTQVTVSS

Key:
Assay in all cases: SPR
Palivizumab = molecular target: Palivizumab
[1] = molecular target: Palivizumab single-chain variable fragment, light-heavy order, fused to IgG1 Fc (P^scFvLHFc)
[2] = molecular target: Palivizumab single-chain variable fragment, heavy-light order, fused to IgG1 Fc (P^scFvHLFc)
Sequence of Palivizumab single-chain variable fragment, heavy-light order, fused to IgG1 Fc (P^scFvHLFc) (chain, as listed by the source, chain 1 of 2): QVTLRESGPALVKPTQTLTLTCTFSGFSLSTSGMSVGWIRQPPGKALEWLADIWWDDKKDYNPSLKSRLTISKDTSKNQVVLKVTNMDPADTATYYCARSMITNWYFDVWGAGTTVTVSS
Sequence of Palivizumab single-chain variable fragment, heavy-light order, fused to IgG1 Fc (P^scFvHLFc) (chain, as listed by the source, chain 2 of 2): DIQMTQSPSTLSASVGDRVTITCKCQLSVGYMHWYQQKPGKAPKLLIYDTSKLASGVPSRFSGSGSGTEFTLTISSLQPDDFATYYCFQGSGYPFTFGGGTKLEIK

Sequence of Palivizumab (VH, as listed by the source, chain 1 of 2): as the sequence (chain, as listed by the source, chain 1 of 2) above
Sequence of Palivizumab (VL, as listed by the source, chain 2 of 2): as the sequence (chain, as listed by the source, chain 2 of 2) above
Sequence of Palivizumab single-chain variable fragment, light-heavy order, fused to IgG1 Fc (P^scFvLHFc) (chain, as listed by the source, chain 1 of 2): as the sequence (chain, as listed by the source, chain 1 of 2) above
Sequence of Palivizumab single-chain variable fragment, light-heavy order, fused to IgG1 Fc (P^scFvLHFc) (chain, as listed by the source, chain 2 of 2): as the sequence (chain, as listed by the source, chain 2 of 2) above

Row | Binder | koff (Palivizumab) | koff [1] | koff [2]
1 | B1 | 0.000733 s⁻¹ | – | –
2 | B2 | 0.00308 s⁻¹ | – | –
3 | B3 | – | 4.2e-05 s⁻¹ | 6.56e-05 s⁻¹
4 | B4 | 0.0148 s⁻¹ | – | –
